Experimental data as given in patent US20260159579A1 (Pfizer, published 2026).
Values joined by “and” are separate entries in the source; they are usually repeats but may differ in a detail not shown here. Equal entries are not always repeated.

How the values were obtained:
[1] = molecular target: T1, Mouse Fc-human GDF15 (Mu IgG1Fc_Fxa_Hu GDF15) (human); assay: SPR BIAcore T200, 37C; Fc-GDF15 captured, monomeric Fc-Fab as analyte; human GDF15 ligand (Mu IgG1Fc_Fxa_Hu GDF15), first run
T1 construct: Whole entry is the fusion: mouse IgG1 Fc, FXa site and linker, mature human GDF15; described as dimeric; also called Murine dimeric IgG1 Fc-human GDF-15 with FXa cleavage site; control human GDF15
T1 chain: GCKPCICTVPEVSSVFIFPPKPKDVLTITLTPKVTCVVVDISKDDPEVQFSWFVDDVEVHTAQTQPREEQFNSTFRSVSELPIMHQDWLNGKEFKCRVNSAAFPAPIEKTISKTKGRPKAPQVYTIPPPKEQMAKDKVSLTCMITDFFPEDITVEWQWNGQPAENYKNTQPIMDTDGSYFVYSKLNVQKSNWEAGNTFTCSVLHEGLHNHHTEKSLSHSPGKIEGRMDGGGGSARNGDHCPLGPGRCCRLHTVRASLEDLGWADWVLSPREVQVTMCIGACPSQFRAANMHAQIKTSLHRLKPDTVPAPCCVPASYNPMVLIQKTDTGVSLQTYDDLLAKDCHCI
Text: (§1) To understand the KD value, without the avidity effect, of GDF15_001 binding to GDF15, monomeric Fc-Fab was produced and tested in the same assay used in Example 2. […] Mu IgG1Fc_Fxa_Hu GDF15, Mu IgG1Fc_Fxa_Mu GDF15 and Mu IgG1Fc_Fxa_Cyno GDF15 were captured onto three different flow cells of a CM4 sensorchip (catalogue number BR100534, GE Healthcare) surface using the Mouse Antibody Capture Kit (BR100838, GE Healthcare) according to the manufacturer's protocol. The running and sample buffer was 10 mM HEPES pH 7.4, 0.15M NaCl, 3 mM EDTA, 0.05% P-20 (HBS-EP+). The final capture levels of Mu IgG1Fc_Fxa_Hu GDF15, Mu IgG1Fc_Fxa_Mu GDF15 and Mu IgG1Fc_Fxa_Cyno GDF15 were 19 resonance units (RU), 22 RU and 19 RU respectively. Flow cell 1 was used as a reference flow cell. […] The dissociation was monitored for 1200 seconds and the surface was regenerated with 10 mM Glycine pH 1.7. Binding affinities and rate constants were determined by fitting the resulting sensorgram data to a 1:1 Langmuir model in BIAcore T200 Evaluation software version 2.0 (GE Healthcare).

[2] = molecular target: T1, Mouse Fc-human GDF15 (Mu IgG1Fc_Fxa_Hu …); assay: SPR BIAcore T200, 37C; Fc-GDF15 captured, monomeric Fc-Fab as analyte; human GDF15 ligand (Mu IgG1Fc_Fxa_Hu GDF15), second run
Text: as §1

[3] = molecular target: T1, Mouse Fc-human GDF15 (Mu IgG1Fc_Fxa_Hu …); assay: SPR BIAcore T200, 37C; Fc-GDF15 captured, monomeric Fc-Fab as analyte; average of runs
Text: as §1

[4] = molecular target: T2, human BMP6 (human, UniProt P22004 382-513, limits assumed); assay: BLI, OctetRED 384; family member amine coupled to AR2G biosensor
T2 construct: Bought
T2 sequence (looked up): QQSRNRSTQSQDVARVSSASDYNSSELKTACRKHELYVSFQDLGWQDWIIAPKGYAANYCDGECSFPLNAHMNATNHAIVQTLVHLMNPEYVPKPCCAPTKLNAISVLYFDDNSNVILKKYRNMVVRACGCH
Description: (§2) To assess the binding specificity of GDF15_001 to human GDF15, GDF15_001 binding to additional TGFB family members was tested. Analysis was carried out on an Octet Red instrument.
(§3) The TGFB family members were diluted to 10 ug/ml in 10 mM Sodium Acetate pH 4.5 and amine coupled onto AR2G biosensors (catalogue #18-5092, ForteBio) according to the manufacturer's instructions. Monomeric GDF15_001 was diluted to 200 nM in kinetics buffer (catalogue #18-5032 ForteBio). Octet assays were conducted at room temperature with an association time of 300 seconds and a dissociation time of 180 seconds. The data was double referenced (Myszka, D., J. Mol. Recognit 1999; 279-284) and analyzed with Octet Data Analysis software version 8.1 (ForteBio).

[5] = molecular target: T3, human BMP2 (human, UniProt P12643 283-396); assay: as above
T3 construct: Bought
Description: as §2, §3

[6] = molecular target: T4, human Activin B (human, UniProt P09529 293-407); assay: as above
T4 construct: Bought
T4 sequence (looked up): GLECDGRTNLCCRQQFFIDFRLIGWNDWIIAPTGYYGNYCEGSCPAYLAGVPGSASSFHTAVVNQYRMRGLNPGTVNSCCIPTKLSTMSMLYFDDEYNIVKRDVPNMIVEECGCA
Description: as §2, §3

[7] = molecular target: T5, human BMP9 (human, UniProt Q9UK05 320-429); assay: as above
T5 construct: Bought
T5 sequence (looked up): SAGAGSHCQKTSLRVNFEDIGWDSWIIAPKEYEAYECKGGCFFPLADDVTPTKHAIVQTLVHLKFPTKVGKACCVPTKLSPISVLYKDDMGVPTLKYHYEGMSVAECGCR
Description: as §2, §3

[8] = molecular target: Mouse Fc-mouse GDF15 (Mu IgG1Fc_Fxa_Mu GDF15) (mouse); assay: SPR BIAcore T200, 37C; Fc-GDF15 captured, monomeric Fc-Fab as analyte; murine GDF15 ligand (Mu IgG1Fc_Fxa_Mu GDF15), second run
[9] = molecular target: Mouse Fc-mouse GDF15 (Mu IgG1Fc_Fxa_Mu GDF15) (mouse); assay: SPR BIAcore T200, 37C; Fc-GDF15 captured, monomeric Fc-Fab as analyte

T3 sequence (P12643 283-396 limits assumed): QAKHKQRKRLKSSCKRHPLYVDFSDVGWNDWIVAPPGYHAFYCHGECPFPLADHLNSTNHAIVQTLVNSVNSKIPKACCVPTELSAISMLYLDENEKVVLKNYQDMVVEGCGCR

Kd [1]: 14.9 pM
Kd [2]: 27.6 pM
Kd [3]: 21.3 pM
koff [3]: 3.42e-05 s⁻¹
kon [3]: 1.59e+06 M⁻¹ s⁻¹
binding result [4]: no binding (tested: 200 nM)
binding result [5]: no binding (tested: 200 nM)
binding result [6]: no binding (tested: 200 nM)
binding result [7]: no binding (tested: 200 nM)
Kd [8]: 1820 pM
T½ min [9]: 3.39 min and 3.73 min
koff [9]: 0.00341 s⁻¹ and 0.0031 s⁻¹
kon [9]: 1.62e+06 M⁻¹ s⁻¹ and 1.7e+06 M⁻¹ s⁻¹
B1: monomeric GDF15_001 (CH23LS-GBT-GDF15_001) (Fab, V domains shown)
VH: QVQLVQSGAEVKKPGSSVKVSCKASGYTFSSYNIDWVRQAPGQGLEWMGGINPIFGTAFYNQKFQGRVTITADESTSTAYMELSSLRSEDTAVYYCAREAITTVGAMDHWGQGTLVTVSS
VL: EIVLTQSPATLSLSPGERATLSCRTSQSVHNYLAWYQQKPGQAPRLLIYDASTRADGIPARFSGSGSGTDFTLTISSLEPEDFAVYYCQQFWSWPWTFGQGTKVEIK
notes: Monovalent 'monomeric Fc-Fab' of GDF15_001 made to measure KD without avidity; also called CH23LS-GDF15_001; monomeric Fc-Fab
